{"source": "the nanobody polyreactivity screen of Harvey et al. (2022)"}
{"test": "yeast display, Sf9 membrane polyspecificity reagent, FACS + sequencing; frameworks hold sequencing errors", "outline": "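Sorting gates, low and high (top ~1%), were placed on anti-HA fluorescence to track expression and on streptavidin fluorescence to track reagent binding. A clone's polyreactivity label is taken from the gate it came out of. The reagent was 10% biotinylated, detergent-solubilized Sf9 membrane, applied for 1 hour at 4 °C to galactose-induced yeast display cells.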"}
{"sequence": "QVQLVESGGGLVQAGGSLRLSCAASGRIFRYNAMGWYRPAPGKERELVAAIRFSGGSTYYADSVKGRFTISRDHAKNTVYLQMNSLKPEDTAVYDCAKVYFRVQSGMDYWGQGTQVTVSS", "polyreactivity (PSR sort gate)": "low polyreactivity"}
{"sequence": "QVQLVESGGGLVQAGGSLRLSCAASGRIFRYNAMGWYRQAPGKERELVAAISYRTGSTHYADSVKGRFTISRDNAKNTVYLQMNILKPEDTAVYYCAYVPGYCYWGQGTQVTVSS", "polyreactivity (PSR sort gate)": "low polyreactivity"}
{"sequence": "QVQLVESGGGLVQAGGSLRLSCAASGRIFRYNAMGWYRQAPGKERELVATISWSGGRTYYADSVKGRFTISRDNAKNTVYLQMNSLKPEDNAVYYCAAYSYRGFGEYDYWGQGTQVTVSS", "polyreactivity (PSR sort gate)": "high polyreactivity"}
{"sequence": "QVQLVESGGGLVQAGGSLRLSCAASGRIFRYYAMGGYRQAPGKERELVATISRSGGSTFYAYSVKGRFTISRDNAKNTVYLQMNSLKPEDTAVYYCNARYQTGGYGYWGQGTQVTVSS", "polyreactivity (PSR sort gate)": "high polyreactivity"}
{"sequence": "QVQLVESGGGLVQAGGSLRLSCAASGRIFRYYAMGWYRQAPGKERELVAAISGGGGTYYADSVKGRFTISRDNATNTVYLQMNSLKPEDTAVYYCNAETYDYWFGYDYWGQGTQVTVSS", "polyreactivity (PSR sort gate)": "high polyreactivity"}
{"sequence": "QVQLVESGGGLVQAGGSLRLSCAASGRIFRYYAMGWYRQAPGKERELVAAISGSGGSTYYADSVKGRFTISRDNAKNTVYLQMNSLKPEDTAVYYCNARYRIPSGEGDHWGQGTQVTVSS", "polyreactivity (PSR sort gate)": "low polyreactivity"}
{"sequence": "QVQLVESGGGLVQAGGSLRLSCAASGRIFRYYAMGWYRQAPGKERELVAAISYSGGRTYYADSVKGRFTISRDNAKNTVYLQMNSLKPEDTAVYYCNARARSRKFYYWGQGTQVTVSS", "polyreactivity (PSR sort gate)": "high polyreactivity"}
{"sequence": "QVQLVESGGGLVQAGGSLRLSCAASGRIFRYYAMGWYRQAPGKERELVAAITSSGSNTYYADSVKGRFTISRDNAKNTVYLQMNSLKPEDTAVYYCNARWRLVSSGFDGGYWGQGTQVTVSS", "polyreactivity (PSR sort gate)": "high polyreactivity"}
{"sequence": "QVQLVESGGGLVQAGGSLRLSCAASGRIFRYYAMGWYRQAPGKERELVASITRRGGSTYYADSVKGRFTISRDNAKNTVYLQMNSLKPEDTAVYYCAADTYYNLGNYWGQGTQVTVSS", "polyreactivity (PSR sort gate)": "high polyreactivity"}
{"sequence": "QVQLVESGGGLVQAGGSLRLSCAASGRIFRYYAMGWYRQAPGKERELVASITSGARTSYADSVKGRFTISRDNAKNTVYLQMNSLKPEDTAVYYCAPGYSYSPGRMGYWGQGTQVTVSS", "polyreactivity (PSR sort gate)": "high polyreactivity"}
{"sequence": "QVQLVESGGGLVQAGGSLRLSCAASGRIFRYYAMGWYRQAPGKERELVATISGRGGSTYYADSVKGRFTISRDNAKNTVYLQMNSLKPEDTAVYYCNTVSTRYIYDYWGQGTQVTVSS", "polyreactivity (PSR sort gate)": "high polyreactivity"}
{"sequence": "QVQLVESGGGLVQAGGSLRLSCAASGRIFRYYAMGWYRQAPGQERELVAAITWSGGSTYYADSVKGRFTISRDNAKNTVYLQMNSLKPEDTAVYYCNAKSYQPFHGDYWGQGTQVTVSS", "polyreactivity (PSR sort gate)": "low polyreactivity"}
{"sequence": "QVQLVESGGGLVQAGGSLRLSCAASGRIFRYYAMGWYRQAPVKDRELVARINIGGSTYYADSVKGRFTISRDNAKNTVYLKMNSLLREDTAVYYCAAVPRPVSRTIWGDYWGEGTQVTVSS", "polyreactivity (PSR sort gate)": "high polyreactivity"}
{"sequence": "QVQLVESGGGLVQAGGSLRLSCAASGRIFRYYMRWYRQAPGKERKLVAVISSGGRTKYADSVKGRFTISRDNAKNTVYLQMNILKPQDTAVYYCAARYPREAAYVFDYWGQGTLVTVSS", "polyreactivity (PSR sort gate)": "high polyreactivity"}
{"sequence": "QVQLVESGGGLVQAGGSLRLSCAASGRIFRYYTMGWYRQAPGKERELVAAITSSSGSTYYADSVKGRFTISRDNAKNTVYLQMNSLKPEDTAVYYCNAVRYTTQTPKVDYGYWGQGTQVTVSS", "polyreactivity (PSR sort gate)": "high polyreactivity"}
{"sequence": "QVQLVESGGGLVQAGGSLRLSCAASGRIFRYYTMGWYRQAPGKERELVATITSDGRTNYADSVKGRFTISRDNAKNTVYLQMNSLKPEDTALYYCAAVYHRSYSLQSYGYWGQGTQVTVSS", "polyreactivity (PSR sort gate)": "high polyreactivity"}
{"sequence": "QVQLVESGGGLVQAGGSLRLSCAASGRIFRYYTMGWYRQEPGKERELVAAITGSGGSTYYADSVKGRFTISRDNAKTTVYLQMNSLKPEDTAVYYCAARGYLDMGYWGQGTQVTVSS", "polyreactivity (PSR sort gate)": "high polyreactivity"}
{"sequence": "QVQLVESGGGLVQAGGSLRLSCAASGRIFSAYAMGWYRPAPGKERELVAAISKRGGRTYYADSVKGRFTISRDNAKNTVYLQMNSLKPEDTAVYYCNKRYHDGHELDYWGQGTQVTVSS", "polyreactivity (PSR sort gate)": "high polyreactivity"}
{"sequence": "QVQLVESGGGLVQAGGSLRLSCAASGRIFSAYAMGWYRQAPGKERELVAVISSADSTNYADSVKGRFTITRDNAKNTVYLQINSLKPEDNAVYYCNARGKHRYGFRSHVGNEYWGQGTQVTVSS", "polyreactivity (PSR sort gate)": "low polyreactivity"}
{"sequence": "QVQLVESGGGLVQAGGSLRLSCAASGRIFSAYVMGWNRQAPGKERELVAAISSGGTRTSYADSVKGRFTISRDNAKNTVYLQMNSLTPEDTAVYYCAAARFYRSAYGYWGQGTQVTVSS", "polyreactivity (PSR sort gate)": "high polyreactivity"}
{"sequence": "QVQLVESGGGLVQAGGSLRLSCAASGRIFSAYVMGWYRQAPGKERELVAAISSGGSRTSYADSVKGRFTISRDNAKNTVYLQMNSLKPEDTAVYYCAAARFYRSAYGYWGQGTQVTVSS", "polyreactivity (PSR sort gate)": "high polyreactivity"}
{"sequence": "QVQLVESGGGLVQAGGSLRLSCAASGRIFSDYAMGWSSQAPGKERELVATITSGDSTNYADSVKGRFTISRDHAKNTVYLQMNSLKPEDTAVYYCNADRFADYDYWGQGTQVTVSS", "polyreactivity (PSR sort gate)": "low polyreactivity"}
{"sequence": "QVQLVESGGGLVQAGGSLRLSCAASGRIFSEYAMGWYRQAPGKERELVAAISKSGGRTYYADSVKGRFTISRDNAKNTVYLKMNSLKPEDTAVYYCNARAVYPAGYAYDYWGQGTQVTVSS", "polyreactivity (PSR sort gate)": "high polyreactivity"}
{"sequence": "QVQLVESGGGLVQAGGSLRLSCAASGRIFSFNAMGWYRQAPGKERELVAAISWSTGSTFYADSVKGRFTISRDNAKNTVYLQMNSLKPEDTAVYYCAREYYYRRGFFLRGYWGQGTQVTVSS", "polyreactivity (PSR sort gate)": "high polyreactivity"}
{"sequence": "QVQLVESGGGLVQAGGSLRLSCAASGRIFSFNAMGWYRQAPGKERELVAGITDSGGSTYYADSVKGRFTISRDNAKNTVYFQMNSLKPEDTAVYYCNAEWPYSRVREYFYAYDYWGQGTQVTVSS", "polyreactivity (PSR sort gate)": "low polyreactivity"}
{"sequence": "QVQLVESGGGLVQAGGSLRLSCAASGRIFSFNGMGWYRQAPGKERELVAAITTSGGRTYYADSVKGRFTISRDNAKNTVYLQINSLKPEDTAVYYCAAELAWEYYWGQGTQVTVSS", "polyreactivity (PSR sort gate)": "low polyreactivity"}
{"sequence": "QVQLVESGGGLVQAGGSLRLSCAASGRIFSGSVMGWYRQAPGKVRELVAGITYRDGSTYYADSVKGRFTISRDNAKNTVYFQMNSLKPEDTAVYYCNADDYNDIPYDYWGQGTQVTVSS", "polyreactivity (PSR sort gate)": "low polyreactivity"}
{"sequence": "QVQLVESGGGLVQAGGSLRLSCAASGRIFSGYAMGWYIQAHGKERELVAAISSTGGTYYADSVKGRFTISRDNAKNTVYLQMNSLKPEDTAVYYFAARYRTLTKYYWGQGTQVTVSS", "polyreactivity (PSR sort gate)": "low polyreactivity"}
{"sequence": "QVQLVESGGGLVQAGGSLRLSCAASGRIFSGYAMGWYRQAPGKERELVAVITSTGGSTYYADSVKGRFTISRDNAKNTVYLQMNSLKPEDTAVYYCATRGVRRYYKTMNYWGQGTQVTVSS", "polyreactivity (PSR sort gate)": "high polyreactivity"}
{"sequence": "QVQLVESGGGLVQAGGSLRLSCAASGRIFSGYVKGWYRQAPGKERELVASISRGGSTNYADSVKGRFTISRDNAKNTVYLQMNSLKPEDTAVYYCNKRWFAPPPYSYVRSYDYWGQGTQVTVSS", "polyreactivity (PSR sort gate)": "low polyreactivity"}
{"sequence": "QVQLVESGGGLVQAGGSLRLSCAASGRIFSHDVMGWYRQAPGKERELVAAISSSGGSTYYADSVKGRFTISRDNAKNTVYLQMNSLKPEDTAVYYCAADQWASGTDDYWGQGTEVTVSS", "polyreactivity (PSR sort gate)": "low polyreactivity"}
{"sequence": "QVQLVESGGGLVQAGGSLRLSCAASGRIFSHNVMGWYRQAPGKERELVAAISGRDGSTYYADSVKGRFTISRDNAKNTVYLQMNSLKPEDTAVYYCATDTSNVEGDYWGQGTQVTVSS", "polyreactivity (PSR sort gate)": "low polyreactivity"}
{"sequence": "QVQLVESGGGLVQAGGSLRLSCAASGRIFSHYAMGLYREAPGKERELVAAITGSGGITYYADSVKGRFTISRDKSKNTVFLQMISLKPEDTAVYYCAADGLSKFDYLGQGTQVTVSS", "polyreactivity (PSR sort gate)": "low polyreactivity"}
{"sequence": "QVQLVESGGGLVQAGGSLRLSCAASGRIFSHYAMGWYRQAPGKEREFVAAITYSGGSTYYADSVKGRFTISRDNAKNTVYLQMNSLKPEDTAVYYCNAKGYAKYYYWGQGTQVTVSS", "polyreactivity (PSR sort gate)": "high polyreactivity"}
{"sequence": "QVQLVESGGGLVQAGGSLRLSCAASGRIFSIYGMGWSRQAPGKERELVAVISGSVGITYYADSVKVRFTISRDNAKNTVYLQMISLKPEDTAVYYCNAKVRRRKYDYWGQGTQVTVSS", "polyreactivity (PSR sort gate)": "high polyreactivity"}
{"sequence": "QVQLVESGGGLVQAGGSLRLSCAASGRIFSKNAMGWYRQAPGKERELVAAISSRGGSTYYADSVKGRFTISRDNAKNTVYLQMNSLKPEDTAVYYCAAGNGAYNYWCRYGYWGQGTQVTVSS", "polyreactivity (PSR sort gate)": "high polyreactivity"}
{"sequence": "QVQLVESGGGLVQAGGSLRLSCAASGRIFSLNTLGWYRQAPGKERELVAAINRGGRSYYADSVKGRFTISRDNAKITVNLQMNSLKPEDTAVYYCAAEVVRQGSYRYGYWGQGTQVTVSS", "polyreactivity (PSR sort gate)": "high polyreactivity"}
{"sequence": "QVQLVESGGGLVQAGGSLRLSCAASGRIFSLYAMGWYRQAPGKERELVAAISWSGGTTYYADSVKGRFTISRDNAKNTVYLQMNSLKPEDTAVYYCAADTGTGLDWGQGSQVTVSS", "polyreactivity (PSR sort gate)": "high polyreactivity"}
{"sequence": "QVQLVESGGGLVQAGGSLRLSCAASGRIFSLYAMGWYRQAPGKERELVATMDSNGGSTYYADSVKGRFTISRDNAKNTVYLQMNSLKPEDTAVYYCAAERYVRVWVAGILHYDYWGQGTQVTVSS", "polyreactivity (PSR sort gate)": "low polyreactivity"}
{"sequence": "QVQLVESGGGLVQAGGSLRLSCAASGRIFSLYAMGWYRQAPGKERELVAVITYRGGDSTYYADSVKGRFTISRDNAKNTVYLQMNSLKPEDTAVYYCAAGQPLYQRRHSSRTYYYWGQGTQVTVSS", "polyreactivity (PSR sort gate)": "high polyreactivity"}
{"sequence": "QVQLVESGGGLVQAGGSLRLSCAASGRIFSNNAMGWYRQAPGKERELVAAISWNGGRTYYADSVKGRFTISRDNAKNTVYLQMNSLKPEDTAVYYCAAGRYDYWGQGTQVTVSS", "polyreactivity (PSR sort gate)": "high polyreactivity"}
{"sequence": "QVQLVESGGGLVQAGGSLRLSCAASGRIFSPYAMGWYRQAPGKERELVAAISFSAASTYYADSVKGRFTISRDNAKNTVYLQMNSLKPEDTAVYYCAADYWGQGTQVTVSS", "polyreactivity (PSR sort gate)": "high polyreactivity"}
{"sequence": "QVQLVESGGGLVQAGGSLRLSCAASGRIFSPYAMGWYRQAPGKERELVAAISGRGGRTYYADSVKGRFTISRDNAKNTVYLQMNSLKPEDTAVYYCNRVVSGYPGSDYWGQGTQVTVSS", "polyreactivity (PSR sort gate)": "high polyreactivity"}
